41 variants from the RNAGym collection of RNA variant scans (doi:10.7554/elife.90254) can be followed below.

B1: OR4K15 (parent)
chain: GUUAACGGUCAUAGGCCAUGGAAACUAGGAGCACCAUUUCGCUGCCAGUGAAGAAAUGAACAAAGAAAAUCUGGGCCAGGCAGGCAUCAAAAGAAAUAGUCUUGCGCUCAACCAGAAAGUCUGUAAUCAUUUUAAGGGUA

The data set covers variants of B1. The experiment in a line: self-cleavage, relative activity (ratio to wild type); higher = more cleavage; in vitro, sequencing; the parent is a self-cleaving ribozyme.
For the variant GUUAACGGUCAUAGGCCAUGGAAACUAGGAGCACCAUUUCGCUGCCAGUGAAGAAAUGAACAAAGAAAACCUGGGCCAGGCAGGCAUCAAAAGAAGUAGUCUUGCGCUCAACCAGAAAGUCUGUAAUCAUUUUAAGGGUA, the self-cleavage worked out at 0.75.
For the variant GUUAACGAUCAUAGGCCAUGGAAACUAGGAGCACCAUUUCGCUGCCCGUGAAGAAAUGAACAAAGAAAAUCUGGGCCAGGCAGGCAUCAAAAGAAAUAGUCUUGCGCUCAACCAGAAAGUCUGUAAUCAUUUUAAGGGUA, the self-cleavage is 1.67.
In the case of GUUAACGGUCAUAGGCCAUGGAAACUAGGAGCACCAUUUCGCUGCCAGUGAAGAAAUGAACAAAGAAAAUCUGGGCCAGGCAGGCAUCAAAAGAAAUAGUCUUGCGCUCAACCAGAAAGUCCGUAAUCAUUUUGAGGGUA, the self-cleavage is 1.75.
Turning to GUUAACGGUCAUAGGCCAUGGAAACUAGGAGCACCAUUUCGCUGCCAGUGAAGAAAUGAACAAAGAAAAUCUGGGCCAGGCAGGCAUCAAAAGGAAUAGUCUUGCACUCAACCAGAAAGUCUGUAAUCAUUUUAAGGGUA, the self-cleavage is 0.
Take GUUAACGGUCAUAGGCCAUGGAAACUGGGAGCACCAUUUCGCUGCCAGUGAAGAAAUGAACAAAGAAAAUCUGGGCCAGGCAGGCAUCAAAAGAAAUAGUCCUGCGCUCAACCAGAAAGUCUGUAAUCAUUUUAAGGGUA: the self-cleavage came to 1.06.
For the variant GUUAACGGUCAUAGGCCAUGGAAACUAGGAGCACCAUUUCGCUGCCUGUGAAGAAAUGAACGAAGAAAAUCUGGGCCAGGCAGGCAUCAAAAGAAAUAGUCUUGCGCUCAACCAGAAAGUCUGUAAUCAUUUUAAGGGUA, the self-cleavage was determined as 0.82.
Turning to GUUAACGGUCAUAGGCCAUGGAAACUAGGAGCACCAUUUCGCUGCCAGUGAAGAAAUGAACAAAGAAAAUCUGGGCCAAGCAGGCAUCAAAAGAAAUUGUCUUGCGCUCAACCAGAAAGUCUGUAAUCAUUUUAAGGGUA, the self-cleavage amounted to 0.13.
For the variant GUUAACGGUCAUAGGCCAUGGAAACUAGGAGCACCAUUUCGCUGCCAGUGAGGAAAUGAACAAAGAAAAUCUGGGCCAGGCAGGCAUCAAAAGAAAUAGUCUUGCGCUCAACCAGAAAGUCGGUAAUCAUUUUAAGGGUA, the self-cleavage is 1.94.
Turning to GUUAACGGUCAUAGGCCAUGGAAACUAGGAGCACCAUUUCGCUGCCAGUGAAGAAAUGAACAAAGAAAGUCUGGGCCAGGCAGGCAUCAAAAGAAAUAGUCCUGCGCUCAACCAGAAAGUCUGUAAUCAUUUUAAGGGUA, the self-cleavage turned out to be 2.06.
For the variant GUUAACGGUCAUAGGCCAUGGAAACUAGGAGCACCAUUUCGCUGCCAGUGAAGAAAUGAACAAAGAAAAUCUGGGCCAGGCAGGCAUCAAACGAAAUAGUCUUGCGCUCAACCAGAAAGUCUGUAAUCGUUUUAAGGGUA, the self-cleavage came out at 1.66.
Regarding GUUAACGGUCAUAGGCCAUGGAAACUAGGAGCACCAUUUCGCUGCCAGUGAAGAAAUGAACCAAGAAAAUCUGGGCCAGGCAGGCAUCAAAAGAAAUAGUCUUGCGCUCAACCAGAAAGUCUGUAAUCAUUUUGAGGGUA, the self-cleavage turned out to be 1.15.
Regarding GUUAACGGUCAUAGGCCAUGGAAACUAGGAGCACCAUUUCGCUGCCAGUGAAGAAACGAACAAAGAAUAUCUGGGCCAGGCAGGCAUCAAAAGAAAUAGUCUUGCGCUCAACCAGAAAGUCUGUAAUCAUUUUAAGGGUA, the self-cleavage stood at 2.04.
As for GUUAACGGUCAUAGGCCAUGGAAACUAGGAGCACCAUUUCGCUGCCAGUGAAGAAAUGAACACAGAAAAUCUGGGCCAAGCAGGCAUCAAAAGAAAUAGUCUUGCGCUCAACCAGAAAGUCUGUAAUCAUUUUAAGGGUA, the self-cleavage worked out at 0.09.
In the case of GUUGACGGUCAUAGGCCAUGGAAACUAGGAGCACCAUUUCGCUGCCAGUGAAGAAAUGAACAAAGAAAAUCUGGGCCAGGCAGGCAUCAAAAGAAAUAGUCUUGCGCUCAACCAGAAAGUCUGUAAUCAUUUCAAGGGUA, the self-cleavage worked out at 1.3.
For the variant GUUAACGGUCAUAGGCCAUGGAAACUAGGAGCACCAUUUCGCUGCCUGUGAAGAAAUGAACAAGGAAAAUCUGGGCCAGGCAGGCAUCAAAAGAAAUAGUCUUGCGCUCAACCAGAAAGUCUGUAAUCAUUUUAAGGGUA, the self-cleavage was determined as 0.61.
Regarding GUUAACGGUCAUAGGCCAUGGAAACUAGGAGCACCAUUUCGCUGCCAGUGAAGAAAUGAACAAAGAAAAUCUGGGCCAGGCAGGCAUCAAAAGAAAUAGUCUUGCGCUCAACCAGUAAGUCUGUAAUCAUUAUAAGGGUA, the self-cleavage amounted to 0.05.
Take GUUAACGGUCAUAGGCCAUGGAAACUAGGAGCACCAUUUCGCUGCCAGUGAAGAAAUGAACAAAGAAAAUCUGUGCCAGGCAGGCAUCAAAAGAAAUAGUCUUGCGCUCAACCGGAAAGUCUGUAAUCAUUUUAAGGGUA: the self-cleavage amounted to 0.03.
For GUUAACGGUCAUAGGCCAUGGAAACUAGGAGCACCAUCUCGCUGCCAGUGAAGAAAUGAACAAAGAAAAUCUGGGCCAGGCAGGCAUCAAAAGAAAUAGCCUUGCGCUCAACCAGAAAGUCUGUAAUCAUUUUAAGGGUA, the self-cleavage was 2.28.
Turning to GUUACCGGUCAUAGGCCAUGGAAACUAGGAGCACCAUUUCGCUGCCAGUGAAGAAAUGAGCAAAGAAAAUCUGGGCCAGGCAGGCAUCAAAAGAAAUAGUCUUGCGCUCAACCAGAAAGUCUGUAAUCAUUUUAAGGGUA, the self-cleavage is 1.88.
GUUAACGGUCAUAGGCCAUGGAAACUAGGAGCACCAUUUCGCUGCCAGUGAAGAAAUGAACAAAGAAAAUCUGGGCCAGGCAGGCAUCAAAAGAAAUAGUCUUGCGCUCAACCAGAAAGUCUGUAUUCACUUUAAGGGUA: the self-cleavage was found to be 1.08.
Turning to GUUAACGGUCAUAGGCCAUGGAAACUAGGAGCACCAUUUCGCUGCCAGUGAAGAAAUGAACAAAGAAAAUCGGGGCCAGGCAGGCAUCAAAAGAAAUAGUCUUGCGCUCAACCUGAAAGUCUGUAAUCAUUUUAAGGGUA, the self-cleavage is 0.6.
In the case of GUUAACGGUCAUAGGCCAUGGAAACUAGGAGCACCAUUUCGCUGACAAUGAAGAAAUGAACAAAGAAAAUCUGGGCCAGGCAGGCAUCAAAAGAAAUAGUCUUGCGCUCAACCAGAAAGUCUGUAAUCAUUUUAAGGGUA, the self-cleavage was 1.5.
For the variant GUUAACGGUCAUAGGCCAUGGAAACUAGGAGCACCAUUUCGCUGCCAGUGAAGUAAUGAACAAAGAAAAUCUGGGCCAGGCGGGCAUCAAAAGAAAUAGUCUUGCGCUCAACCAGAAAGUCUGUAAUCAUUUUAAGGGUA, the self-cleavage turned out to be 0.64.
For GUUAACGGUCAUAGGCCAUGGAAACUAGGAGCACCAUUUCGCUGCCAGUGAAGAAGUGAACAAAGAAAAUCUGGGCCAGGCAGGCAUCAAAAGAAAUAGUCUUGCGCUCAACCAGAAAGUCUGUAACCAUUUUAAGGGUA, the self-cleavage stood at 0.96.
Take GUUAACGGUCAUAGGCCAUGGAAACUAGGAGCACCAUUUCGCUGCCAGUGAAGAGAUGAACAAAGAAAAUCUGGGCCAGGCAGGCAUCAAAAGAAAUAGUCUUGCGCUCGACCAGAAAGUCUGUAAUCAUUUUAAGGGUA: the self-cleavage was determined as 0.12.
Consider GUUAACGGUCAUAGGCCAUGGAAACUAGGAGCACCAUUUCGCUGCCAGUGAAGAAAUGAACAAAGAAAAUCUGGGCCAGGCAGGCAUCAAAAGAAAUAGUCUCGCGCUCAACCAGAAAGUCUGUAAUCAUUUUAAGGGUA, for which the self-cleavage was 0.7.
Turning to GUUAACGGUCAUAGGCCAUGGAAACUAGGAGCACCAUUUCGCUGCCAGUGAAGAAAUGAACAAAGAAAAUCUGGGCCAGGCAGGCAUCAAAAGAAAUGGUCUUGCGCUCAACCAGAAAGUCAGUAAUCAUUUUAAGGGUA, the self-cleavage is 0.57.
Next, GUUAACGGUCAUAGGCCAUGGAAACUAGGAGCACCAUUUCGCUGCCAGUGAAGAAAUGAACAAGGUAAAUCUGGGCCAGGCAGGCAUCAAAAGAAAUAGUCUUGCGCUCAACCAGAAAGUCUGUAAUCAUUUUAAGGGUA: 0.44; GUUAACGGUCAUAGGCCAUGGAAACUAGGAGCACCAUUUCGCUGCCAGUGAAGAAAUGAACAAAGAAAAUCUGGGCCAGGCGGGUAUCAAAAGAAAUAGUCUUGCGCUCAACCAGAAAGUCUGUAAUCAUUUUAAGGGUA: 0.32.
GUUAACGGUCAUAGGCCAUGGAAACUAGGAGCACCAUUUCGCUGCCAGUGAAGAAAUGAAUAAAGAAAAUCUGGGCCAGGCAGGUAUCAAAAGAAAUAGUCUUGCGCUCAACCAGAAAGUCUGUAAUCAUUUUAAGGGUA: the self-cleavage amounted to 0.95.
As to GUUAACGGUCAUAGGCCUUGGAAACUAGGAGCACCAUUUCGCUGCCAGUGAAGAAAUGAACAAAGAAAAUCUGGGCCAGGCAGGCAUCAAAAGAAAUAGUCUUGCGCUCAACCAGAAAGUCCGUAAUCAUUUUAAGGGUA, the self-cleavage amounted to 0.87.
For GUUAACGGUCAUAGGCCAUGGAUACUAGGAGCACCAUUUCGCUGCCAGUGAAGAAGUGAACAAAGAAAAUCUGGGCCAGGCAGGCAUCAAAAGAAAUAGUCUUGCGCUCAACCAGAAAGUCUGUAAUCAUUUUAAGGGUA the value was 1.29; for GUUAACGGUCAUAGGCCAUGGAAACUAGGAGCACCAUUUCGCUGCCAGUGAAGAAAUGAACAAAGAAAAUCUGGGCCAGGCAGGCAUCAAAAGAAAUAGUCUUGCGCUCAAACAGAAAGUCUGUAAUCAUUUUAAGGGUA, 0.01; for GUUAACGGUCAUAGGCCAUGGAAACUAGGAGCACCAUUUCGCUGCCAGUGAAGAAAUGAACAAAGAAAAUCUGGGCCAGGCAGGCAUCAAAAGAAAUAGUCUUACGCUCAACCAGAAAGUCCGUAAUCAUUUUAAGGGUA, 0.02.
Consider GUUAACGGUCGUAGGCCAAGGAAACUAGGAGCACCAUUUCGCUGCCAGUGAAGAAAUGAACAAAGAAAAUCUGGGCCAGGCAGGCAUCAAAAGAAAUAGUCUUGCGCUCAACCAGAAAGUCUGUAAUCAUUUUAAGGGUA, for which the self-cleavage came to 1.08.
As for GUUAACGGUCAAAGGCCAUGGAAACUAGGAGCACCAUUUCGCUGCCAGUGAAGAUAUGAACAAAGAAAAUCUGGGCCAGGCAGGCAUCAAAAGAAAUAGUCUUGCGCUCAACCAGAAAGUCUGUAAUCAUUUUAAGGGUA, the self-cleavage worked out at 2.25.
Next, GUUAACGGUCAUAGGCCAUGGAAGCUAGGAGCACCAUUUCGCUGCCAGUGAAGAAAUGAACAAUGAAAAUCUGGGCCAGGCAGGCAUCAAAAGAAAUAGUCUUGCGCUCAACCAGAAAGUCUGUAAUCAUUUUAAGGGUA: 1.51.
Take GUUAACGGUCAGAGGCCAUGGAAACUCGGAGCACCAUUUCGCUGCCAGUGAAGAAAUGAACAAAGAAAAUCUGGGCCAGGCAGGCAUCAAAAGAAAUAGUCUUGCGCUCAACCAGAAAGUCUGUAAUCAUUUUAAGGGUA: the self-cleavage was 1.
For GUUAACGGUCAUAGGCCAUGGAAACUAGGAGCACCGUUUCGCUGCCAGUGAAGAAAUGAACAAAGAAAAUCUGGGCCAGGCAGGCAUCAAAAGAAAUAGUCUUGCGCUCAACCAGAAAGUCUGUGAUCAUUUUAAGGGUA, the self-cleavage was 0.6.
For the variant GUUAACGGUCAUAGGCCAUGGAAACUAGGAGCACCAUUUCGCUGCCAGUGAAGAAAUGAACAAAGAAAAUAUGGGCCAGGCAGGCAUCAAAAGAGAUAGUCUUGCGCUCAACCAGAAAGUCUGUAAUCAUUUUAAGGGUA, the self-cleavage came to 0.88.
With GUUAACGGUCAUAGGCCAUGGAAACUAGGAGCACCAUUUCGCUGCCAGUGAAGAGAUGAACAAAGAAAAUCUGGGCCAGGCAGGCAUCAAAAGAAAUAGUCUUGCGCUCAACCAGAAAGUCUGUAACCAUUUUAAGGGUA, the self-cleavage was found to be 0.82.
